Consider one molecule from publication PMC6405639 (2019).

The target of the experiment is Y2R_cysteine_deficient_eYFP (in HEK293 cells) (human, UniProt P49146 1-381, C58^1.40A | C103^2.57S | C151^3.53S | C272^6.39A | C316^7.44A | C342^7.70A).
Chain of Y2R_cysteine_deficient_eYFP (in HEK293 cells) (P49146 other isoform, or with tags, fused parts or gaps with the stated changes): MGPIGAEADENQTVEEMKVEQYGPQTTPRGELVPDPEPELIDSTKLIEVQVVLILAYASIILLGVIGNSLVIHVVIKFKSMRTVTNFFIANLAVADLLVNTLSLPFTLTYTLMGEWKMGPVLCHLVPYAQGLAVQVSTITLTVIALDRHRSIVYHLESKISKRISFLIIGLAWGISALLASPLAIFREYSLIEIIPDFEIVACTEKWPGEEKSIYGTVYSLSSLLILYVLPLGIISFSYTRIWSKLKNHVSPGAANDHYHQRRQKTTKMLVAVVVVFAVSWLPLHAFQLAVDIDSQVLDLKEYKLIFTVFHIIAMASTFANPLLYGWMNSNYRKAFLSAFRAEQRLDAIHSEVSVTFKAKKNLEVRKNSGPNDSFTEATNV

B1: Porcine neuropeptide Y (peptide)
peptide: not shown
modifications: C-terminal amide
The molecule B1 showed a 50% inhibitory concentration (IC50) of 8.2 nM.

As a reminder, the IC50 is the point on the concentration scale where inhibition reaches its midpoint. Higher therefore signals weaker potency.
